Experiments:
[1] = target: T1, ERK-2 (extracellular signal-regulated kinase 2) (UniProt P28482 1-360, limits assumed, biotinylated for immobilisation on streptavidin sensors); test: BLI, immobilised ERK-2, single component fit
T1 construct: Bought protein; also called ERK1/2
Method: NOSs were expressed and purified as known in the art (22-24). Heme and flavin content were estimated spectrophotometrically, and activity assayed by following NADPH consumption at 340 nm (23, 24). eNOS NO synthase activity and cytochrome c reduction were assayed as known in the art (25, 26), the concentration of CaM was reduced to 0.6 μM because of potential competition between CaM and p38. Phosphorylated His-p38 was expressed as known in the art (26) and was purified using Talon™ resin as directed by the manufacturer. ERK-2 was purchased from PROSPEC (NJ). Biolayer interferometry (27) measurements were made on a ForteBio (Menlo Park Calif.) Octet QK biosensor using streptavidin sensors. Assays were performed in 200 μL volumes at 25° C. p38 and ERK were biotinylated as known in the art (21). Biotinylated kinases were loaded onto sensors for 600 s. After establishing baseline response, kinases were exposed to analyte eNOS or nNOS at a range of concentrations. Baseline, association, and dissociation phases were all performed in NOS buffer (10 mM phosphate, pH 7.5, 100 mM NaCl, 10% glycerol, 0.005% surfactant P-20, 10 uM CaCl₂). Association and dissociation were monitored as nm shift. Nonspecific binding of analytes to sensors without ligand was negligible and so was not subtracted.
The concentration dependence was similar to that of the binding of eNOS to p38. […]

calmodulin (CaM) [2] = target: T2, calmodulin (CaM) (UniProt P0DP23 2-149); test: BLI, biotinylated CaM on streptavidin sensors, eNOS analyte, global single-state model
calmodulin (CaM) [3] = target: T2, calmodulin (CaM); test: SPR (Biacore X100, CAPture chip), immobilised CaM, single-cycle kinetics, sequential model
calmodulin (CaM) [4] = target: T2, calmodulin (CaM); test: optical biosensing (BLI, SPR), immobilised CaM
calmodulin (CaM) [5] = target: T2, calmodulin (CaM); test: BLI, immobilised CaM, single-state model

T1 sequence (P28482 whole entry): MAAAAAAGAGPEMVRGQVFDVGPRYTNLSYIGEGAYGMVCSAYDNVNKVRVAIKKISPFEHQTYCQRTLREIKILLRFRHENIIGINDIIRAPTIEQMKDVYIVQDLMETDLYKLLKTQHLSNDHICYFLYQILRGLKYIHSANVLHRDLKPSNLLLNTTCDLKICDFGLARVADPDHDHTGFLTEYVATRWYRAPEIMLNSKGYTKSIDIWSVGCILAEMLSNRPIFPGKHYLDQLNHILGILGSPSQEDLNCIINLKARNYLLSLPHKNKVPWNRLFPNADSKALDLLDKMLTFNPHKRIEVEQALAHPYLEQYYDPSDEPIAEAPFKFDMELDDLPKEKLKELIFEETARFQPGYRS

Row | fold of apparent Kd against that measured for p38 [1] [fold] | Kd (calmodulin (CaM) [2]) [nM] | koff (calmodulin (CaM) [2]) [s⁻¹] | kon (calmodulin (CaM) [2]) [M⁻¹ s⁻¹] | Kd (calmodulin (CaM) [3]) [nM] | Kd (calmodulin (CaM) [4]) [nM] | fold higher koff than unphosphorylated eNOS (calmodulin (CaM) [5]) [fold] | Binder
1 | ~2 | 0.92 | 0.00011 | 120000 | 0.72 | ~1 | – | endothelial nitric oxide synthase (eNOS), purified, unphosphorylated (enzyme, bovine, UniProt P29473 1-1205, looked up, Expressed and purified 'as known in the art (22-24)'; also called unphosphorylated eNOS; purified eNOS) MGNLKSVGQEPGPPCGLGLGLGLGLCGKQGPASPAPEPSRAPAPATPHAPDHSPAPNSPTLTRPPEGPKFPRVKNWELGSITYDTLCAQSQQDGPCTPRCCLGSLVLPRKLQTRPSPGPPPAEQLLSQARDFINQYYSSIKRSGSQAHEERLQEVEAEVASTGTYHLRESELVFGAKQAWRNAPRCVGRIQWGKLQVFDARDCSSAQEMFTYICNHIKYATNRGNLRSAITVFPQRAPGRGDFRIWNSQLVRYAGYRQQDGSVRGDPANVEITELCIQHGWTPGNGRFDVLPLLLQAPDEAPELFVLPPELVLEVPLEHPTLEWFAALGLRWYALPAVSNMLLEIGGLEFSAAPFSGWYMSTEIGTRNLCDPHRYNILEDVAVCMDLDTRTTSSLWKDKAAVEINLAVLHSFQLAKVTIVDHHAATVSFMKHLDNEQKARGGCPADWAWIVPPISGSLTPVFHQEMVNYILSPAFRYQPDPWKGSATKGAGITRKKTFKEVANAVKISASLMGTLMAKRVKATILYASETGRAQSYAQQLGRLFRKAFDPRVLCMDEYDVVSLEHEALVLVVTSTFGNGDPPENGESFAAALMEMSGPYNSSPRPEQHKSYKIRFNSVSCSDPLVSSWRRKRKESSNTDSAGALGTLRFCVFGLGSRAYPHFCAFARAVDTRLEELGGERLLQLGQGDELCGQEEAFRGWAKAAFQASCETFCVGEEAKAAAQDIFSPKRSWKRQRYRLSTQAEGLQLLPGLIHVHRRKMFQATVLSVENLQSSKSTRATILVRLDTAGQEGLQYQPGDHIGICPPNRPGLVEALLSRVEDPPPPTESVAVEQLEKGSPGGPPPSWVRDPRLPPCTLRQALTFFLDITSPPSPRLLRLLSTLAEEPSEQQELETLSQDPRRYEEWKWFRCPTLLEVLEQFPSVALPAPLLLTQLPLLQPRYYSVSSAPNAHPGEVHLTVAVLAYRTQDGLGPLHYGVCSTWLSQLKTGDPVPCFIRGAPSFRLPPDPYVPCILVGPGTGIAPFRGFWQERLHDIESKGLQPAPMTLVFGCRCSQLDHLYRDEVQDAQERGVFGRVLTAFSREPDSPKTYVQDILRTELAAEVHRVLCLERGHMFVCGDVTMATSVLQTVQRILATEGDMELDEAGDVIGVLRDQQRYHEDIFGLTLRTQEVTSRIRTQSFSLQERHLRGAVPWAFDPPGPDTPGP
2 | – | 2.7 | 0.00012 | 120000 | 0.65 | ~1 | 3 | ERK phosphorylated eNOS (enzyme, phosphorylated in vitro by ERK2 at S602, T46 and S58 (bovine eNOS numbering); apparent stoichiometry 2-3 phosphates per monomer) MGNLKSVGQEPGPPCGLGLGLGLGLCGKQGPASPAPEPSRAPAPATPHAPDHSPAPNSPTLTRPPEGPKFPRVKNWELGSITYDTLCAQSQQDGPCTPRCCLGSLVLPRKLQTRPSPGPPPAEQLLSQARDFINQYYSSIKRSGSQAHEERLQEVEAEVASTGTYHLRESELVFGAKQAWRNAPRCVGRIQWGKLQVFDARDCSSAQEMFTYICNHIKYATNRGNLRSAITVFPQRAPGRGDFRIWNSQLVRYAGYRQQDGSVRGDPANVEITELCIQHGWTPGNGRFDVLPLLLQAPDEAPELFVLPPELVLEVPLEHPTLEWFAALGLRWYALPAVSNMLLEIGGLEFSAAPFSGWYMSTEIGTRNLCDPHRYNILEDVAVCMDLDTRTTSSLWKDKAAVEINLAVLHSFQLAKVTIVDHHAATVSFMKHLDNEQKARGGCPADWAWIVPPISGSLTPVFHQEMVNYILSPAFRYQPDPWKGSATKGAGITRKKTFKEVANAVKISASLMGTLMAKRVKATILYASETGRAQSYAQQLGRLFRKAFDPRVLCMDEYDVVSLEHEALVLVVTSTFGNGDPPENGESFAAALMEMSGPYNSSPRPEQHKSYKIRFNSVSCSDPLVSSWRRKRKESSNTDSAGALGTLRFCVFGLGSRAYPHFCAFARAVDTRLEELGGERLLQLGQGDELCGQEEAFRGWAKAAFQASCETFCVGEEAKAAAQDIFSPKRSWKRQRYRLSTQAEGLQLLPGLIHVHRRKMFQATVLSVENLQSSKSTRATILVRLDTAGQEGLQYQPGDHIGICPPNRPGLVEALLSRVEDPPPPTESVAVEQLEKGSPGGPPPSWVRDPRLPPCTLRQALTFFLDITSPPSPRLLRLLSTLAEEPSEQQELETLSQDPRRYEEWKWFRCPTLLEVLEQFPSVALPAPLLLTQLPLLQPRYYSVSSAPNAHPGEVHLTVAVLAYRTQDGLGPLHYGVCSTWLSQLKTGDPVPCFIRGAPSFRLPPDPYVPCILVGPGTGIAPFRGFWQERLHDIESKGLQPAPMTLVFGCRCSQLDHLYRDEVQDAQERGVFGRVLTAFSREPDSPKTYVQDILRTELAAEVHRVLCLERGHMFVCGDVTMATSVLQTVQRILATEGDMELDEAGDVIGVLRDQQRYHEDIFGLTLRTQEVTSRIRTQSFSLQERHLRGAVPWAFDPPGPDTPGP

Source: patent publication US20150232576A1 (published 2015)
